Source: patent US20220332821A1 (Novartis, published 2022)

How the values were obtained:
Cyno BCMA-Fc = biological target: T1, Cyno BCMA-Fc (cynomolgus, UniProt A0A2K5UD97 1-53); test: method not stated; mean of three biological replicates
T1 construct: not shown: Fc part

Human CD3-biotin = biological target: T2, Human CD3-biotin (human); test: as above
T2 chain: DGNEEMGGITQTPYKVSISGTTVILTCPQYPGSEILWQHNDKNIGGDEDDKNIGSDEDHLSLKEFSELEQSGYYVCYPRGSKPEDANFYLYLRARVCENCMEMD

Mouse BCMA-Fc = biological target: T3, Mouse BCMA-Fc (mouse, UniProt O88472 1-49, limits assumed, not fully specified); test: as above
T3 construct: not shown: Fc part
T3 chain (looked up): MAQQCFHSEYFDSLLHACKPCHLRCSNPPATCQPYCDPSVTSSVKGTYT

[1] = biological target: T4, BCMA on KMS11 myeloma cells (UniProt Q02223 1-184); test: cell-based or functional assay
T4 sequence (looked up): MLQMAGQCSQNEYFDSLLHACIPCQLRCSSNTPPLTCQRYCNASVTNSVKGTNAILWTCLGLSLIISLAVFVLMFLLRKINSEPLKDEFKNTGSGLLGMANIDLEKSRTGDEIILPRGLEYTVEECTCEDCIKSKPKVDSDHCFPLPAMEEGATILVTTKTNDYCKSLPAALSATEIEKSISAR

soluble BCMA = biological target: T5, soluble BCMA (UniProt Q02223 1-54); test: cell-based or functional assay
T5 sequence (looked up): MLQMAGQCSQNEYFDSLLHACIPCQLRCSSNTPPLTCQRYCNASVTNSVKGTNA

T1 sequence (A0A2K5UD97 entry or part of it): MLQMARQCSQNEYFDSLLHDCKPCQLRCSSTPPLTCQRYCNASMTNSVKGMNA

B1: BSBM3 (bispecific antibody)
heavy: not shown
light: QSALTQPASVSGSPGQSITISCTGTSSDVGGYNYVSWYQQHPGKAPKLMIYDVSNRLRGVSNRFSGSKSGNTASLTISGLQAEDEADYYCSSYTSSSALYVFGSGTKVTVLGQPKAAPSVTLFPPSSEELQANKATLVCLISDFYPGAVTVAWKADSSPVKAGVETTTPSKQSNNKYAASSYLSLTPEQWKSHRSYSCQVTHEGSTVEKTVAPTECS
chain: not shown
notes: Heterodimeric IgG1 format: anti-BCMA Fab half antibody and anti-CD3 scFv-Fc half antibody; also called BSMB3
- Kd (Cyno BCMA-Fc): 1.29 nM
- Kd (Human CD3-biotin): 8.78 nM
- Kd (Mouse BCMA-Fc): 1.15 nM
- EC50 in RTCC assay (without added recombinant soluble BCMA) [1]: ~0.07 µg/mL
- EC50 in RTCC assay, BSBM3 with AL-102 (gamma secretase inhibitor that raises surface BCMA) [1]: 0.02 nM
- EC50 of KMS11-Luc cell death in RTCC assay, BSBM3 alone [1]: 1 nM
- EC30 in RTCC assay, fold increase with 30 ng/mL soluble BCMA (soluble BCMA): 6 fold
- EC30 in RTCC assay, fold increase with 100 ng/mL soluble BCMA (soluble BCMA): 15 fold
- EC30 in RTCC assay, fold increase with 300 ng/mL soluble BCMA (soluble BCMA): 41 fold
